# Reference: patent publication US11932673B2, “Sodium channel inhibitors” (priority 2017, dated 2024)
# T1: huASIC1a (Homo sapiens, UniProt P78348)
# T1 sequence (P78348 whole entry, looked up): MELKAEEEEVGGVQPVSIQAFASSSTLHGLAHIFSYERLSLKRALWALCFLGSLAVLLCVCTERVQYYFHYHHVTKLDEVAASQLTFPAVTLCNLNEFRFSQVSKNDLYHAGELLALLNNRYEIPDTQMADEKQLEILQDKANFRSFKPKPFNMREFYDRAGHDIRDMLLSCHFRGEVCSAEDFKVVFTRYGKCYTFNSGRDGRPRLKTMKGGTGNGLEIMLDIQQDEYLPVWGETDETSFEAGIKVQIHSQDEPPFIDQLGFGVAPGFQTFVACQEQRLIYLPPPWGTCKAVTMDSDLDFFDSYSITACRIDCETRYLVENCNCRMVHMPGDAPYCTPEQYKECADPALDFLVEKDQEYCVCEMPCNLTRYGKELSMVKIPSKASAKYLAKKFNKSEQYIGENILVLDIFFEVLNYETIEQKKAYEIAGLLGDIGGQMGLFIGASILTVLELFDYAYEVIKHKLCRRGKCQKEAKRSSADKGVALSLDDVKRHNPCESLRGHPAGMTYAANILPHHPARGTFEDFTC
# B1: KB_A07: EETI-II VL CDR2 KnotBody, D1A12 VH, VL SEQ ID NO: 136/372; parental/isotype control (antibody, V domains shown)
# VH: EVQLVESGGGLVRPGGSLRLSCAASGFTFSSYAMSWVRQAPGKGLEWVSAISGSGGSTYYADSVKGRFTISRDNTKNSLYLQMTSLRADDTAFYYCVKDFGPGYGTGWFDYWGPGTLVTVSS
# VL: DIQMTQSPSSLSASVGDRVTITCRASQSISSYLNWYQQKPGKAPKLLIYAAGVCPRILMRCKQDSDCLAGCVCGPNGFCGSRSGVPSRFSGSGSGTDFTLTISSLQPEDFATYYCQQGASPPYTFGQGTKVEIKR
# B2: KB_A12_ProTx-III 2M Gly: ProTx-III 2M Gly in VL CDR2 of KB_A12, IgG; Nav1.7 KnotBody (antibody, V domains shown)
# VH: EVQLVESGGGLVRPGGSLRLSCAASGFTFSSYAMSWVRQAPGKGLEWVSAISGSGGSTYYADSVKGRFTISRDNTKNSLYLQMTSLRADDTAFYYCVKDFGPGYGTGWFDYWGPGTLVTVSS
# VL: QSVLTQPPSVSEAPRQRVTITCSGSSSNIGNNAVNWYQQLPGKAPKLLIYAAGRGCLKFGWKCNPRNDKCCSGLKCGSNHNWCKWHIGANSGVSDRFSAAKSGTSASLAINGLRSEDEADYYCAAWDDSLNGYVFGTGTKLTVLG
# B3: KB_A12_ProTx-III Gly (antibody, V domains shown)
# VH: EVQLVESGGGLVRPGGSLRLSCAASGFTFSSYAMSWVRQAPGKGLEWVSAISGSGGSTYYADSVKGRFTISRDNTKNSLYLQMTSLRADDTAFYYCVKDFGPGYGTGWFDYWGPGTLVTVSS
# VL: QSVLTQPPSVSEAPRQRVTITCSGSSSNIGNNAVNWYQQLPGKAPKLLIYAAGRDCLKFGWKCNPRNDKCCSGLKCGSNHNWCKLHIGANSGVSDRFSAAKSGTSASLAINGLRSEDEADYYCAAWDDSLNGYVFGTGTKLTVLG
# How the values were obtained:
# [1] = test system: trypsin; assay: TRF binding assay of purified KnotBody Fabs on biotinylated trypsin
# [2] = biological target: LOX-1 (Homo sapiens, UniProt P78380); assay: Phage TRF binding assay of adhiron-antibody fusions on LOX-1; conditions: monoclonal phage; LOX-1 directly immobilised; non-specific binding checked on cMET-FC, GAS6-CD4, FGFR4-CD4, UPA, B-gal
# Method: In order to test the functionality of these adhiron-antibody fusions, monoclonal phage prepared from each clone was assessed for binding to LOX-1 in a TRF binding assay. In this assay, LOX-1 (immobilised directly on Maxisorp™ plates) binding of phage displaying adhiron-antibody fusion was detected using a mouse anti-M13 antibody (GE Healthcare) followed by europium conjugated anti-mouse antibody (Perkin Elmer). Parent KnotBodies KB_A07 and KB_A12 (EETI-II fusions) were included as controls. Proteins cMET-FC, GAS6-CD4, FGFR4-CD4, UPA and B-gal were used to examine non-specific binding.
# [3] = biological target: T1, huASIC1a; assay: QPatch automated whole-cell patch-clamp on HEK293 cells stably expressing huASIC1a; format: cell-based; conditions: pH 6.0 activation after 15-20 min pre-incubation; concentration μM: KB_A07_PcTx1 6.6, KB_A12_PcTx1 5, KB_A12_Mba-1 3, KB_A12_Mba-2 2.3, KB_A07 6, KB_A12 3.3
# Method: Knottin Kv 1.3 and ASIC1a blockers expressed in the KnotBody format (see examples 6 and 7) were tested for their ability to inhibit the function of the ion channel targets. The effect of these KnotBodies on cells expressing the human Kv 1.3 (huKv1.3) or human ASIC1a channels was assessed using QPatch automated whole-cell patch-clamp electrophysiology (Sophion).
# To functionally assess the ASIC1a KnotBodies, HEK293 cells stably expressing huASIC1a (Sophion) were analysed using a QPatch electrophysiology assay in the presence or absence of the KnotBody fusions (using KB_A12 as a recipient and replacing the original EETI-II donor as shown in Table 8). The “parental” KB_A12 with the EETI-II donor was used as a negative control. Internal and external physiological solutions were freshly prepared prior to the assay. […]
# At the end of each KnotBody incubation and subsequent ASIC1a current activation, a full blocking concentration (300 nM) of the ASIC1a knottin inhibitor PcTx1 (positive control) was perfused onto the cell recording and a final activating pH 6.0 external solution was applied. The percentage remaining signal between activating pH 6.0 baseline (i.e. pre-KnotBody) and post-KnotBody incubation was determined.
# [4] = test system: trypsin; assay: Phage TRF binding assay of KnotBody phage on immobilised biotinylated trypsin
# Method: Phage display technology facilitates isolation of binders to any given target from large combinatorial repertoires based on proteins and peptides that can be presented on the surface of filamentous phage^105. In order to isolate functional knottin-antibody fusions from the KnotBody libraries multiple rounds of phage display selections on trypsin (cognate antigen for the EETI-II donor) were carried out. Phage particles were prepared by rescuing KnotBody libraries using trypsin cleavable helper phage^102,106 Two rounds of phage display selections were performed on 10 μg/ml biotinylated trypsin immobilised on Streptavidin (for Round-1) or Neutravidin (for round-2) coated Maxisorp™ immunotubes (Thermo Scientific, Cat No. 444202). In both rounds of selection, phage libraries were pre-incubated with streptavidin coated paramagnetic beads (Thermo Fisher Scientific, Cat. No. 11205D). These beads were removed prior to the addition the phage to the antigen tubes to limit the streptavidin binders entering the selection. Polyclonal phage preparations from round-2 selection outputs were analysed for trypsin binding using a time resolved fluorescence (TRF) binding assay. In this assay, polyclonal phage binding to biotinylated trypsin immobilised on neutravidin (Thermo Fisher Scientific, Cat. No 31000) coated Maxisorp™ plates (Thermo Scientific, Cat. No. 437111) was detected using a mouse anti-M13 antibody (GE Healthcare, Cat. No. 27-9420-01) followed by europium conjugated anti-mouse antibody (Perkin Elmer, Cat. No. AD0124).
# In order to identify monoclonal KnotBodies with desired binding characteristics, 94 individual clones derived from 2 rounds of selection using EETI-II CDR1 or CDR2 libraries were picked into 96 well culture plates and phage were prepared from each clone. Methods for screening by monoclonal phage ELISA are known in the art^107. […] Clones with >3× binding signal above background were picked as positive clones and sequenced to identify unique clones. 14 and 42 unique binders were identified from EETI-II CDR1 and EETI-II CDR2 libraries respectively (Table 1). 18 binders from the EETI-II CDR2 library and 3 binders from the EETI-II-CDR1 library were chosen for further characterisation based on their VL and linker sequence diversity. These binders were assigned new clone identification numbers (Table 2). […] In order to confirm that the loss of trypsin binding was not due to reduced expression or display of pIII fusion phage was prepared from 11 (randomly chosen) KnotBodies and their GlyAla variants were analysed on a western blot using an antibody which recognises the product of gene 3 (pIII) using an anti-pIII antibody (MoBiTec GmbH) (FIG. 6).
# [5] = biological target: human Nav1.7 (Homo sapiens, UniProt Q15858); assay: QPatch patch-clamp on CHO cells stably expressing human Nav1.7, single application (Example 19); format: cell-based
# Method: The effect of these KnotBodies on cells expressing human Nav1.7 (huNav1.7) channel was assessed using QPatch automated patch-clamp platform (Sophion). For the testing of Nav1.7 ion channel currents, CHO cells stably expressing human Nav1.7 (GenBank accession number NM 002977; cell line catalogue number CT6003, Charles River Discovery, Cleveland, USA) were subjected to the QPatch electrophysiology assay in the presence or absence of the KnotBody fusions or the antibody isotypes (negative controls). Internal and external physiological solutions were freshly prepared prior to the assay. The extracellular solution contained 145 mM NaCl, 4 mM KCl, 2 mM CaCl2, 1 mM MgCl2, 10 mM HEPES and 10 mM glucose; the pH was adjusted to 7.4 with NaOH; the osmolarity was ˜305 mOsm/L. The intracellular solution contained: KF (120 mM), KCl (20 mM), HEPES (10 mM) EGTA (10 mM); the pH was adjusted to 7.2 with KOH; osmolarity was ˜300 mOsm/L.
# A series of depolarising voltage (channel activating) pulses were used to monitor the channel currents upon adding control (extracellular solution) to define a control baseline of current activity. To these measured control channel currents KnotBody or parental antibody isotypes (control molecules) were applied to the external bathing solution. The parental KnotBody KB_A12 (with trypsin inhibitor knottin EETI-II at CDR2) were used as test molecule isotype controls for the testing. […] The elicited, maximum outward current values measured during the −10 mV activating step for each solution period (a control, baseline level of current was determined at 10 minutes after application of the control external recording solution and a test level of current was determined after 20 minutes of application of KnotBody or its isotype) and average inhibition was determined between the current from the 10 minute baseline control current and the subsequent 20 minute KnotBody application. […] The average inhibition values (with external control reduction subtracted) for KnotBodies and isotypes was calculated.
# human Nav1.7, sequence (Q15858 other isoform, or with tags, fused parts or gaps): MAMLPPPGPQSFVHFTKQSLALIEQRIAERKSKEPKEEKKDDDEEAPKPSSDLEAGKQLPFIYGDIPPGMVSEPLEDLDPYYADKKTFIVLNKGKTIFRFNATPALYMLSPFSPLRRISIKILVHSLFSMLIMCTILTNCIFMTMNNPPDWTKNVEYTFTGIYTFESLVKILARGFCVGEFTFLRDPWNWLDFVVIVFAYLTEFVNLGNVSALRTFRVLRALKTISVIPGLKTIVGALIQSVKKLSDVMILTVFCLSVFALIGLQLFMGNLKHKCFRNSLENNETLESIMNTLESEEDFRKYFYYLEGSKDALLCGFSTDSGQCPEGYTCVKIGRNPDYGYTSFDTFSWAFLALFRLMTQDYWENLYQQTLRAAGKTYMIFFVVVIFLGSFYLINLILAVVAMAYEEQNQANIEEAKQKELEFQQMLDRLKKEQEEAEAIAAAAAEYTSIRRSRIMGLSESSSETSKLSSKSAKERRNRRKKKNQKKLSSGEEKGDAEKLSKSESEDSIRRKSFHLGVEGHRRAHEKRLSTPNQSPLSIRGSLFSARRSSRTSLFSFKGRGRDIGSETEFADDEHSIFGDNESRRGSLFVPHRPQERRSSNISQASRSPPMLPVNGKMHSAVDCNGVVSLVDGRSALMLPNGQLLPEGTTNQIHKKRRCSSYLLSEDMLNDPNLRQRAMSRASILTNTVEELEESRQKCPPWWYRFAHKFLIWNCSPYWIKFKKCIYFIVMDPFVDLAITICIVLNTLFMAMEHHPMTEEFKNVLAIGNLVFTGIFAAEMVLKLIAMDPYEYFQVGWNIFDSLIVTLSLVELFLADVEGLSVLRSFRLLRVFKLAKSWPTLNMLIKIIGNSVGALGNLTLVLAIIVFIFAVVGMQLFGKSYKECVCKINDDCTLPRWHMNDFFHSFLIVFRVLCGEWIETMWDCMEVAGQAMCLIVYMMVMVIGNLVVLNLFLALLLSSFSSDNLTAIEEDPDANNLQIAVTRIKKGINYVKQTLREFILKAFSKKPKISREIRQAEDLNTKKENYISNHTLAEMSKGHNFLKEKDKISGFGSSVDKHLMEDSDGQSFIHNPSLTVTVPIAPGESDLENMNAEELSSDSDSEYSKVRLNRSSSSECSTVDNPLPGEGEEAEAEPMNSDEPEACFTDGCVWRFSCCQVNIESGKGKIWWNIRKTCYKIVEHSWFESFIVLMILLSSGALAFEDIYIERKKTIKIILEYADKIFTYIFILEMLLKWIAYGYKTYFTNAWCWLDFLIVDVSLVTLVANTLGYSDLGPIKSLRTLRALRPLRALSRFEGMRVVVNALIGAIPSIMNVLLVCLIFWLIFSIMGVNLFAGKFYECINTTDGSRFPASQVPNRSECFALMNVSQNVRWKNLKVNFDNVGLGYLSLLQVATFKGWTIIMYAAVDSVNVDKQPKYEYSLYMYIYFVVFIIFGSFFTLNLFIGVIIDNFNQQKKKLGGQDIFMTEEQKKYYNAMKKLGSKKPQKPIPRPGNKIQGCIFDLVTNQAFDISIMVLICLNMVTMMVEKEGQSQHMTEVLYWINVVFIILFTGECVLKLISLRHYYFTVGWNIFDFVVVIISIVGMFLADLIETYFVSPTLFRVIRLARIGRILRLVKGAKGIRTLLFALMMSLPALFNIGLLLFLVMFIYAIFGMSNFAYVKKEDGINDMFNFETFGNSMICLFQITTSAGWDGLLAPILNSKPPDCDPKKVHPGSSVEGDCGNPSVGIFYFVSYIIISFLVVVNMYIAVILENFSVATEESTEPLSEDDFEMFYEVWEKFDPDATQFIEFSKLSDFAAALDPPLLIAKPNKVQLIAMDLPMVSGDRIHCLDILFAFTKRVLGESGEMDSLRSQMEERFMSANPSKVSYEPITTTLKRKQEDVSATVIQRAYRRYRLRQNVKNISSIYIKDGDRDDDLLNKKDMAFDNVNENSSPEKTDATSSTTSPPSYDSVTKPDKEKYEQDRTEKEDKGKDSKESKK
molecule,measurement,setting,value
B1,TRF signal for 0.6 ug/mL Fab,"[1]; KnotBody Fab 0.6 ug/mL, background (no Fab) 431",107814
same,TRF signal for 2.4 ug/mL Fab,"[1]; KnotBody Fab 2.4 ug/mL, background (no Fab) 406",201003
same,TRF signal for 10 ug/mL Fab,"[1]; KnotBody Fab 10 ug/mL, background (no Fab) 420",226082
same,binding to LOX-1,[2],no detectable binding to the LOX-1
same,% current remaining,[3],70.9%
same,% reduction in binding signal,"[4]; […], monoclonal phage, streptavidin coated plates",98%
same,Tryspin binding signal (FU),"[4]; monoclonal phage supernatant, biotinylated trypsin on neutravidin coated plates, TRF",21448 FU
B2,Mean % inhibition of Nav1.7 currents,[5]; concentration tested 15.4 μM,63.5%
B3,Mean % inhibition of Nav1.7 currents,[5]; concentration tested 22.3 μM,26.6%
